In general, Kd refers to the equilibrium constant for the complex coming apart. Higher therefore signals a looser complex.

We go through one molecule from paper doi:10.1101/442517 (bioRxiv, 2018).

The target of assay [1] is RaxX21-sY (tyrosine sulfated synthetic 21-residue derivative of RaxX, residues 35-55) (Xanthomonas oryzae pv. oryzae). The assay can be described thus: MST.
Assay [2] addresses RaxX21-nY (non-sulfated synthetic 21-residue derivative of RaxX, residues 35-55) (Xanthomonas oryzae pv. oryzae). Briefly: MST.

B1: XA21 extracellular domain (XA21^ECD; XA21 residues 23-649) (domain or fragment)
chain: SDDDGDAAGDELALLSFKSSLLYQGGQSLASWNTSGHGQHCTWVGVVCGRRRRRHPHRVVKLLLRSSNLSGIISPSLGNLSFLRELDLGDNYLSGEIPPELSRLSRLQLLELSDNSIQGSIPAAIGACTKLTSLDLSHNQLRGMIPREIGASLKHLSNLYLYKNGLSGEIPSALGNLTSLQEFDLSFNRLSGAIPSSLGQLSSLLTMNLGQNNLSGMIPNSIWNLSSLRAFSVRENKLGGMIPTNAFKTLHLLEVIDMGTNRFHGKIPASVANASHLTVIQIYGNLFSGIITSGFGRLRNLTELYLWRNLFQTREQDDWGFISDLTNCSKLQTLNLGENNLGGVLPNSFSNLSTSLSFLALELNKITGSIPKDIGNLIGLQHLYLCNNNFRGSLPSSLGRLKNLGILLAYENNLSGSIPLAIGNLTELNILLLGTNKFSGWIPYTLSNLTNLLSLGLSTNNLSGPIPSELFNIQTLSIMINVSKNNLEGSIPQEIGHLKNLVEFHAESNRLSGKIPNTLGDCQLLRYLYLQNNLLSGSIPSALGQLKGLETLDLSSNNLSGQIPTSLADITMLHSLNLSFNSFVGEVPTIGAFAAASGISIQGNAKLCGGIPDLHLPRCCPLLENRK
As to B1, the Kd is 20 nM in assay [1] and 400 nM in assay [2].
